{"source": "patent CN116478288A", "key": {"[1]": {"biological_target": "人源CD47 (on cells: hCD47-overexpressing CHO-K1; Raji) (human) (UniProt Q08722)", "sequence (Q08722 19-323)": "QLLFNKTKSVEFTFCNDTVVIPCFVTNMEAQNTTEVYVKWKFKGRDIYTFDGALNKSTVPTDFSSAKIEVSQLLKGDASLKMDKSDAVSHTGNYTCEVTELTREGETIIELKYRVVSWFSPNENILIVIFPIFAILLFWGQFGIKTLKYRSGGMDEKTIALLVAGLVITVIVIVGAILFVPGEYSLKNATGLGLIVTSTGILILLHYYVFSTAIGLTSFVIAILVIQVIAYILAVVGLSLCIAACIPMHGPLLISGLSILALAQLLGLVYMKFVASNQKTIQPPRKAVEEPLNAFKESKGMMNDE", "experiment": "flow cytometry, control human IgG on CHO-K1 overexpressing human CD47 (PBS background 139.0)"}, "[2]": {"biological_target": "食蟹猴CD47 (on overexpressing CHO-K1 cells) (cynomolgus monkey)", "experiment": "flow cytometry, control human IgG on CHO-K1 overexpressing cynomolgus CD47 (PBS background 92.8)"}}}
{"substance": "human IgG (antibody)", "values": [{"measurement": "MFI", "setting": "[1]", "result": 101, "unit": "MFI"}, {"measurement": "MFI", "setting": "[2]", "result": 71, "unit": "MFI"}]}
